Numbering of substitutions follows the chain as printed.
B1: SEQ ID NO 292 (designed binder)
chain: MLPAPKNLVVSRVTEDSARLSWTAPDAAFDSFDIAYWELTPSGEAIELLVPGSERSYDLTGLKPGTEYRVDIIGVKGGFISEPLGATFTT
B2: SEQ ID NO 267 (designed binder)
chain: MLPAPKNLVVSRVTEDSARLSWTAPDAAFDSFPIVYSEIHVIGEAIVLTVPGSERSYDLTGLKPGTEYDVWIEGVKGGHLSEPLSAIFTT
B3: SEQ ID NO 294 (designed binder)
chain: B2 chain with P33S, V35I, I39W, H40N, I42T, H79G, L80M, E82K, F88S
B4: SEQ ID NO 268 (designed binder)
chain: B2 chain with P33T, S37G, I39A, H40G, V41A, I42F, W71L, H79N, E82W
B5: SEQ ID NO 278 (designed binder)
chain: B2 chain with V35A, S37A, I39P, H40R, V41P, I42D, D69S, W71L, E73H, E82D
B6: SEQ ID NO 307 (designed binder)
chain: MLPAPKNLVVSRVTEDSARLSWTAPDAAFDSFPITYSEPAHYGEAIVLTVPGSERSYDLTGLKPGTEYHVGIMGVKGGVFSSPLSAIFTT
B7: SEQ ID NO 53 (designed binder)
chain: MLPAPKNLVVSRVTEDSARLSWTAPDAAFDSFFISYIEWWDLGEAIVLTVPGSERSYDLTGLKPGTEYHVEIFGVKGGTQSYPLSAIFTT
B8: SEQ ID NO 57 (designed binder)
chain: B7 chain with F33S, S35K, I37L, D41Q, L42D, H69Y, E71H, F73A, T79Y, Q80R
B9: SEQ ID NO 274 (designed binder)
chain: MLPAPKNLVVSRVTEDSVRLSWTAPDAAFDSFAISYEEWWVHGEAIVLTVPGSERSYDLTGLKPGTEYSVVIPGVKGGLYSWTLSAISTT
B10: SEQ ID NO 297 (designed binder)
chain: MLPAPKNLVVSRVTEDSARLSWTAPDAAFDSFLIPYAETSPSGEAITLFVPGSERSYDLTGLKPGTEYNVVIQGVKGGRPSNPLVAASTT
B11: SEQ ID NO 34 (designed binder)
chain: MLPAPKNLVVSRVTEDSARLSWTAPDAAFDSFAITYIEWWDVGEAIGLKVPGSERSYDLTGLKPGTEYRVHIQGVKGGNNSYPLDALFTT
B12: SEQ ID NO 279 (designed binder)
chain: MLPAPKNLVVSRVTEDSARLSWTAPDAAFDSFSIEYYESVGLGEAIVLTVPGSERSYDLTGLKPGTEYDVSIYGVKGGYLSRPLSAIFTT
B13: SEQ ID NO 56 (designed binder)
chain: B12 chain with S33V, Y37F, S39A, V40L, G41E, L42G, D69F, S71G, Y79P, R82K
B14: SEQ ID NO 287 (designed binder)
chain: B12 chain with S33T, Y37H, V40G, G41P, L42V, D69M, S71W, Y73F, Y79F, L80V
B15: SEQ ID NO 55 (designed binder)
chain: B12 chain with S33I, Y37W, S39F, L42Y, D69W, S71A, Y79D, R82K
B16: SEQ ID NO 277 (designed binder)
chain: MLPAPKNLVVSRVTEDSARLSWTAPDAAFDSFWINYYEGIGEGEAIVLTVPGSERSYDLTGLKPGTEYYVDISGVKGGSYSLPLSAIFTT
B17: SEQ ID NO 291 (designed binder)
chain: MLPAPKNLVVSRVTEDSARLSWTAPDAAFDSFHIEYEEPETEGEAIYLHVPGSERSYDLTGLKPGTEYKVLIRGVKGGSYSIPLQAPFTT
B18: SEQ ID NO 276 (designed binder)
chain: MLPAPKNLVVSRVTEDSARLSWTAPDAAFDSFRIDYLELTSLGEAIVLTVPGSERSYDLTGLKPGTEYPVPILGVKGGLSSWPLSAIFTT
B19: SEQ ID NO 309 (designed binder)
chain: B18 chain with R33I, T40D, S41Q, L42E, P69A, P71Y, L73F, L79Y, S80P, W82T
B20: SEQ ID NO 54 (designed binder)
chain: MLPAPKNLVVSRVTEDSARLSWTAPDAAFDSFQILYQENAFEGEAIVLTVPGSERSYDLTGLKPGTEYWVYIYGVKGGYPSVPLSAIFTT
B21: SEQ ID NO 299 (designed binder)
chain: B12 chain with S33L, Y37W, L42Y, D69W, S71G, L80Y
B22: SEQ ID NO 289 (designed binder)
chain: MLPAPKNLVVSRVTEDSARLSWTAPDAAFDSFAIPYYEDTNDGEAIVLTVPGSERSYDLTGLKPGTEYWVSIQGVKGGTVSGPLSAIFTT
B23: SEQ ID NO 303 (designed binder)
chain: B22 chain with A33F, P35A, Y37F, D39F, T40A, D42P, W69K, S71V, V80P, G82E
B24: SEQ ID NO 308 (designed binder)
chain: MLPAPKNLVVSEVTEDSARLSWQGVARAFDSFLITYREQIFAGEVIVLTVPGSERSYDLTGLKPGTEYPVWIQGVKGGSPSAPLSAISTT
B25: SEQ ID NO 300 (designed binder)
chain: MLPAPKNLVVSRVTEDSARLSWTAPDAAFDSFFIGYLEPQPPGEAIVLTVPGSERSYDLTGLKPGTEYNVTIHGVKGGTPSMPLSAIFTT
B26: SEQ ID NO 281 (designed binder)
chain: MLPAPKNLVVSRVTEDSARLSWTAPDAAFDSFYIDYDEIHDWGEAIVLTVPGSERSYDLTGLKPGTEYAVQIGGVKGGSFSWTLSAIFTT
B27: SEQ ID NO 269 (designed binder)
chain: MLPAPKNLVVSRVTEDSARLSWTAPDAAFDSFHINYAEVYTKGEAILLTVPGSERSYDLTGLKPGTEYEVYIPGVKGGPFSRPLNAQFTT
B28: SEQ ID NO 286 (designed binder)
chain: MLPAPKNLVVSRVTEDSARLSWTAPDAAFDSFNIYYPEFPVRGEAIVLTVPGSERSYDLTGLKPGTEYVVSIWGVKGGTQSWPLSAIFTT
B29: SEQ ID NO 302 (designed binder)
chain: B28 chain with N33D, F39Y, P40Y, V41D, V69T, S71Y, W73D, T79G, Q80G, W82G
B30: SEQ ID NO 305 (designed binder)
chain: MLPAPKNLVVSRVTEDSARLSWTAPDAAFDSFEIDYDEPFVYGEAIVLTVPGSERSYDLTGLKPGTEYRVFIFGVKGGNGSWPLSAIFTT
B31: SEQ ID NO 301 (designed binder)
chain: MLPAPKNLVVSRVTEDSARLSWTAPDAAFDSFEIEYDEPYRGGEAIVLTVPGSERSYDLTSLKPGTEYPVSIGGVKGGITSDPLSAIFTT
B32: SEQ ID NO 282 (designed binder)
chain: MLPAPKNLVVSRVTEDSARLSWTAPDAAFDSFAIVYHEPRPDGEAIVLTVPGSERSYDLTGLKPGTEYEVVILGVKGGVHSYPLSAIFTT
B33: SEQ ID NO 295 (designed binder)
chain: B25 chain with Q40I, P42S, N69P, T71V, H73Q, T79H, M82Q
B34: SEQ ID NO 271 (designed binder)
chain: MLPAPKNLVVSRVTEDSARLSWTAPDAAFDSFYIPYAETRDDGEAIVLTVPGSERSYDLTGLKPGTEYSVLIHGVKGGDLSSPLSAIFTT
B35: SEQ ID NO 285 (designed binder)
chain: B34 chain with Y33L, R40S, D41P, D42S, L80Y
B36: SEQ ID NO 298 (designed binder)
chain: B34 chain with Y33P, P35A, T39P, D41P, D79L, F88S
B37: SEQ ID NO 306 (designed binder)
chain: B12 chain with S33Y, Y37F, S39T, V40Q, L42Y, D69Y, S71A
B38: SEQ ID NO 283 (designed binder)
chain: B34 chain with Y33P, P35A, T39P, D41P, D79L
B39: SEQ ID NO 272 (designed binder)
chain: B34 chain with Y33G, T39S, R40T, D41P, D42T, D79H, S82D
B40: SEQ ID NO 288 (designed binder)
chain: B34 chain with Y33L, R40S, D41P, D42S, L80Y, F88S
B41: SEQ ID NO 275 (designed binder)
chain: B34 chain with Y33L, P35A, T39V, R40T, D41L, D42H, D79R, L80N, S82D
B42: SEQ ID NO 290 (designed binder)
chain: MLPAPKNLVVSRVTEDSARLSWTAPDAAFDSFFYLEQAWGGEAIVLTVPGSERSYDLTGLKPGTEYWVEITGVKGGYASSPLSAIFTT

molecular target: human serum albumin (human) (UniProt P02768); assay: screening ELISA
Sequence (P02768 25-609 limits assumed): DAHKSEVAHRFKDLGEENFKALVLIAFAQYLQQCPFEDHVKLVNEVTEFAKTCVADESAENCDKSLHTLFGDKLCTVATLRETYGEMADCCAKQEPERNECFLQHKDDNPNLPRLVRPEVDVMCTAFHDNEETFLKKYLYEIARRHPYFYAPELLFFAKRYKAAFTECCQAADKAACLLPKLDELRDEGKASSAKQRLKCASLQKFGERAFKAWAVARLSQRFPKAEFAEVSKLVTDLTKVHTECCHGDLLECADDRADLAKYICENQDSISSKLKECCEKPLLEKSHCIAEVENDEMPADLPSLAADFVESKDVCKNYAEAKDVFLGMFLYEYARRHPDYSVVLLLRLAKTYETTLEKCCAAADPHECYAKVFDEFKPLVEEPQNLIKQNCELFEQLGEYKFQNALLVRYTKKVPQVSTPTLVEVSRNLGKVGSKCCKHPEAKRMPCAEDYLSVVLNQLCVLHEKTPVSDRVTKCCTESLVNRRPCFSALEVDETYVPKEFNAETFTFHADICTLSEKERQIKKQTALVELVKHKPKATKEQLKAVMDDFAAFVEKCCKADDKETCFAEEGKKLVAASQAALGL

Row | HSA | Binder
1 | 8850 | B1
2 | 11900 | B2
3 | 8250 | B3
4 | 2550 | B4
5 | 6500 | B5
6 | 4350 | B6
7 | 9120 | B7
8 | 16900 | B8
9 | 11900 | B9
10 | 52600 | B10
11 | 25900 | B11
12 | 3150 | B12
13 | 7520 | B13
14 | 5500 | B14
15 | 7760 | B15
16 | 5200 | B16
17 | 2150 | B17
18 | 12400 | B18
19 | 2850 | B19
20 | 6160 | B20
21 | 2200 | B21

Row | HSA | Binder
22 | 2150 | B22
23 | 2650 | B23
24 | 12300 | B24
25 | 4050 | B25
26 | 22400 | B26
27 | 4150 | B27
28 | 10800 | B28
29 | 21200 | B29
30 | 25000 | B30
31 | 12000 | B31
32 | 18600 | B32
33 | 3800 | B33
34 | 3050 | B34
35 | 2200 | B35
36 | 34000 | B36
37 | 2250 | B37
38 | 6250 | B38
39 | 8950 | B39
40 | 40800 | B40
41 | 3800 | B41
42 | 11800 | B42
